Experimental findings from the supplement of paper PMC5998384 are described below.

The subject of data set [1] is HeLa Kyoto. Nature of the data set: solubility in G1/S (NP-40 vs SDS abundance) (log2 ratio); higher = more soluble. Conditions: cell cycle stage: G1/S.
Data set [2] concerns HeLa Kyoto. Nature of the data set: melting temperature (median over replicates), in situ; higher = more thermally stable.
The subject of data set [3] is HeLa Kyoto. Nature of the data set: solubility change mitosis vs G1/S (difference of NP-40 vs SDS log2 ratios) (log2 ratio difference); higher = more soluble in mitosis.
Data set [4] relates to HeLa Kyoto. Nature of the data set: thermal stability score vs G1/S (z-score of summed log2 fold changes over temperatures); higher = more thermally stable than in G1/S.
[5] abbreviates: cell cycle stage: early G1 (4.5 h after nocodazole release).
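For melting temperature (median over replicates), in situ in this document: HeLa Kyoto cells synchronized by double thymidine or nocodazole block, proteins quantified by TMT10plex mass spectrometry, three independent biological replicates.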
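For solubility change mitosis vs G1/S (difference of NP-40 vs SDS log2 ratios) in this document: synchronized HeLa Kyoto cells (double thymidine block for G1/S, nocodazole release for mitosis), protein amounts in NP-40 versus SDS lysates quantified by mass spectrometry, three biological replicates.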
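For solubility in G1/S (NP-40 vs SDS abundance) in this document: HeLa Kyoto cells arrested at G1/S by double thymidine block, proteins quantified by TMT10plex mass spectrometry in mild NP-40 versus SDS extracts, three biological replicates.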
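For thermal stability score vs G1/S (z-score of summed log2 fold changes over temperatures) in this document: synchronized HeLa Kyoto cells, proteins quantified by TMT10plex mass spectrometry, three biological replicates, mitosis taken 0.5 h after nocodazole release, G1/S directly after double thymidine block.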

On to “MRVAVAGCCHGELDKIYETLALAERRGPGPVDLLLCCGDFQAVRNEADLRCMAVPPKYRHMQTFYRYYSGEKKAPVLTLFIGGNHEASNHLQELPYGGWVAPNIYYLGLAGVVKYRGVRIGGISGIFKSHDYRKGHFECPPYNSSTIRSIYHVRNIEVYKLKQLKQPIDIFLSHDWPRSIYHYGNKKQLLKTKSFFRQEVENNTLGSPAASELLEHLKPTYWFSAHLHVKFAALMQHQAKDKGQTARATKFLALDKCLPHRDFLQILEIEHDPSAPDYLEYDIEWLTILRATDDLINVTGRLWNMPENNGLHARWDYSATEEGMKEVLEKLNHDLKVPCNFSVTAACYDPSKPQTQMQLIHRINPQTTEFCAQLGIIDINVRLQKSKEEHHVCGEYEEQDDVESNDSGEDQSEYNTDTSALSSINPDEIMLDEEEDEDSIVSAHSGMNTPSVEPSDQASEFSASFSDVRILPGSMIVSSDDTVDSTIDREGKPGGTVESGNGEDLTKVPLKRLSDEHEPEQRKKIKRRNQAIYAAVDDDDDDAA [DBR1]”, for which the “solubility in G1/S (log2)” value in the data set on HeLa Kyoto [1] was -0.0568. Also, the melting temperature with HeLa Kyoto [2] (cell cycle stage: G1/S) was found to be 54 °C; in the data set with HeLa Kyoto [2] (cell cycle stage: mitosis), 55.1 °C. For the same sequence, the “solubility change mitosis (log2)” value with HeLa Kyoto [3] is -0.212. In addition, the thermal stability score in the data set on HeLa Kyoto [4] (setting [5]) worked out at 1.33; in the data set on HeLa Kyoto [4] (cell cycle stage: mitosis) it was 3.28.

Take “MRVESGSAQERGILLESLSTLLEKTTASHEGRAPGNRELTDLLPPEVCSLLNPAAIYANNEISLRDVEVYGFDYDYTLAQYADALHPEIFSTARDILIEHYKYPEGIRKYDYNPSFAIRGLHYDIQKSLLMKIDAFHYVQLGTAYRGLQPVPDEEVIELYGGTQHIPLYQMSGFYGKGPSIKQFMDIFSLPEMALLSCVVDYFLGHSLEFDQAHLYKDVTDAIRDVHVKGLMYQWIEQDMEKYILRGDETFAVLSRLVAHGKQLFLITNSPFSFVDKGMRHMVGPDWRQLFDVVIVQADKPSFFTDRRKPFRKLDEKGSLQWDRITRLEKGKIYRQGNLFDFLRLTEWRGPRVLYFGDHLYSDLADLMLRHGWRTGAIIPELEREIRIINTEQYMHSLTWQQALTGLLERMQTYQDAESRQVLAAWMKERQELRCITKALFNAQFGSIFRTFHNPTYFSRRLVRFSDLYMASLSCLLNYRVDFTFYPRRTPLQHEAPLWMDQLCTGCMKTPFLGDMAHIR [NT5DC2]”: the “solubility in G1/S (log2)” value in the data set on HeLa Kyoto [1] was -0.284. Besides, the values for the melting temperature with HeLa Kyoto [2] (cell cycle stage: G1/S) and in the data set on HeLa Kyoto [2] (cell cycle stage: mitosis) were 53.1 °C and 52.6 °C, respectively. Further, in the data set with HeLa Kyoto [3], the “solubility change mitosis (log2)” value is -0.0879. Besides, the thermal stability score is -0.133 in the data set with HeLa Kyoto [4] (setting [5]) and 0.934 in the data set on HeLa Kyoto [4] (cell cycle stage: mitosis).

For “MRWILFIGALIGSSICGQEKFFGDQVLRINVRNGDEISKLSQLVNSNNLKLNFWKSPSSFNRPVDVLVPSVSLQAFKSFLRSQGLEYAVTIEDLQALLDNEDDEMQHNEGQERSSNNFNYGAYHSLEAIYHEMDNIAADFPDLARRVKIGHSFENRPMYVLKFSTGKGVRRPAVWLNAGIHSREWISQATAIWTARKIVSDYQRDPAITSILEKMDIFLLPVANPDGYVYTQTQNRLWRKTRSRNPGSSCIGADPNRNWNASFAGKGASDNPCSEVYHGPHANSEVEVKSVVDFIQKHGNFKGFIDLHSYSQLLMYPYGYSVKKAPDAEELDKVARLAAKALASVSGTEYQVGPTCTTVYPASGSSIDWAYDNGIKFAFTFELRDTGTYGFLLPANQIIPTAEETWLGLKTIMEHVRDNLY [CPA4]”, the “solubility in G1/S (log2)” value in the data set with HeLa Kyoto [1] is 0.184. The melting temperature with HeLa Kyoto [2] (cell cycle stage: G1/S) amounted to 57.4 °C; with HeLa Kyoto [2] (cell cycle stage: mitosis) it was 58.7 °C. Further, in the data set with HeLa Kyoto [3], the “solubility change mitosis (log2)” value stood at 0.0829. Moreover, the thermal stability score in the data set with HeLa Kyoto [4] (setting [5]) was found to be 1.94; with HeLa Kyoto [4] (cell cycle stage: mitosis), 1.93.

Regarding “MSADAAAGAPLPRLCCLEKGPNGYGFHLHGEKGKLGQYIRLVEPGSPAEKAGLLAGDRLVEVNGENVEKETHQQVVSRIRAALNAVRLLVVDPETDEQLQKLGVQVREELLRAQEAPGQAEPPAAAEVQGAGNENEPREADKSHPEQRELRPRLCTMKKGPSGYGFNLHSDKSKPGQFIRSVDPDSPAEASGLRAQDRIVEVNGVCMEGKQHGDVVSAIRAGGDETKLLVVDRETDEFFKKCRVIPSQEHLNGPLPVPFTNGEIQKENSREALAEAALESPRPALVRSASSDTSEELNSQDSPPKQDSTAPSSTSSSDPILDFNISLAMAKERAHQKRSSKRAPQMDWSKKNELFSNL [SLC9A3R1]”, in the data set on HeLa Kyoto [1], the “solubility in G1/S (log2)” value came out at 0.536. Also, the melting temperature in the data set with HeLa Kyoto [2] (cell cycle stage: G1/S) is 56.5 °C; in the data set with HeLa Kyoto [2] (cell cycle stage: mitosis), 57.1 °C. Besides, the “solubility change mitosis (log2)” value in the data set with HeLa Kyoto [3] was -0.0214. The thermal stability score is -1.17 with HeLa Kyoto [4] (setting [5]) and -0.944 in the data set with HeLa Kyoto [4] (cell cycle stage: mitosis).

Turning to “MSADGAEADGSTQVTVEEPVQQPSVVDRVASMPLISSTCDMVSAAYASTKESYPHIKTVCDAAEKGVRTLTAAAVSGAQPILSKLEPQIASASEYAHRGLDKLEENLPILQQPTEKVLADTKELVSSKVSGAQEMVSSAKDTVATQLSEAVDATRGAVQSGVDKTKSVVTGGVQSVMGSRLGQMVLSGVDTVLGKSEEWADNHLPLTDAELARIATSLDGFDVASVQQQRQEQSYFVRLGSLSERLRQHAYEHSLGKLRATKQRAQEALLQLSQVLSLMETVKQGVDQKLVEGQEKLHQMWLSWNQKQLQGPEKEPPKPEQVESRALTMFRDIAQQLQATCTSLGSSIQGLPTNVKDQVQQARRQVEDLQATFSSIHSFQDLSSSILAQSRERVASAREALDHMVEYVAQNTPVTWLVGPFAPGITEKAPEEKK [PLIN3]”, the “solubility in G1/S (log2)” value in the data set with HeLa Kyoto [1] came to 0.715. Besides, the melting temperature in the data set with HeLa Kyoto [2] (cell cycle stage: G1/S) was determined as 56.7 °C; in the data set with HeLa Kyoto [2] (cell cycle stage: mitosis), 57.3 °C. For the same sequence, the “solubility change mitosis (log2)” value in the data set on HeLa Kyoto [3] is 0.0467. The thermal stability score is -0.144 in the data set with HeLa Kyoto [4] (setting [5]) and 0.126 with HeLa Kyoto [4] (cell cycle stage: mitosis).
